B1: Protein PTHB1 (Homo sapiens), Q3SYG4 (parent)
chain: MSLFKARDWWSTILGDKEEFDQGCLCLANVDNSGNGQDKIIVGSFMGYLRIFSPHPAKTGDGAQAEDLLLEVDLRDPVLQVEVGKFVSGTEMLHLAVLHSRKLCVYSVSGTLGNVEHGNQCQMKLMYEHNLQRTACNMTYGSFGGVKGRDLICIQSMDGMLMVFEQESYAFGRFLPGFLLPGPLAYSSRTDSFLTVSSCQQVESYKYQVLAFATDADKRQETEQQKLGSGKRLVVDWTLNIGEQALDICIVSFNQSASSVFVLGERNFFCLKDNGQIRFMKKLDWSPSCFLPYCSVSEGTINTLIGNHNNMLHIYQDVTLKWATQLPHIPVAVRVGCLHDLKGVIVTLSDDGHLQCSYLGTDPSLFQAPNVQSRELNYDELDVEMKELQKIIKDVNKSQGVWPMTEREDDLNVSVVVSPNFDSVSQATDVEVGTDLVPSVTVKVTLQNRVILQKAKLSVYVQPPLELTCDQFTFEFMTPDLTRTVSFSVYLKRSYTPSELEGNAVVSYSRPTDRNPDGIPRVIQCKFRLPLKLICLPGQPSKTASHKITIDTNKSPVSLLSLFPGFASQSDDDQVNVMGFHFLGGARITVLASKTSQRYRIQSEQFEDLWLITNELILRLQEYFEKQGVKDFACSFSGSIPLQEYFELIDHHFELRINGEKLEELLSERAVQFRAIQRRLLARFKDKTPAPLQHLDTLLDGTYKQVIALADAVEENQGNLFQSFTRLKSATHLVILLIALWQKLSADQVAILEAAFLPLQEDTQELGWEETVDAAISHLLKTCLSKSSKEQALNLNSQLNIPKDTSQLKKHITLLCDRLSKGGRLCLSTDAAAPQTMVMPGGCTTIPESDLEERSVEQDSTELFTNHRHLTAETPRPEVSPLQGVSE
partner: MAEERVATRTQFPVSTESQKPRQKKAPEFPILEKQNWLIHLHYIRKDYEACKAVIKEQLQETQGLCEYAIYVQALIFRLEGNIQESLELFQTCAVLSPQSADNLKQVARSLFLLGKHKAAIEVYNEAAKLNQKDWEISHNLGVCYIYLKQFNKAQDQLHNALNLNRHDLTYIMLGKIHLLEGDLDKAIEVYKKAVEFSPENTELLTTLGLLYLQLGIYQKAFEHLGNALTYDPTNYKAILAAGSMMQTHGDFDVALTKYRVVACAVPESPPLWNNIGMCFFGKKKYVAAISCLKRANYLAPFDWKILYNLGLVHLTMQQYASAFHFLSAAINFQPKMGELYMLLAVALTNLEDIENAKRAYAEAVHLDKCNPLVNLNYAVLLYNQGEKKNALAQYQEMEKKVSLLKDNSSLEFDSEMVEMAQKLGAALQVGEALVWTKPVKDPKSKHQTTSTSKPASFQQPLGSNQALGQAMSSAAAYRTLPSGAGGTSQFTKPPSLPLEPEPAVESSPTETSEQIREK

Variants of B1 are the subject of this assay. As to conditions: with bbs4_human BBS4, Q96RK4.
With G538E, the “effect of a mutation on the interaction” value is “with no effect”.
As to V671I, the “effect of a mutation on the interaction” value is “disrupting interaction strength”.
As to T731I, the “effect of a mutation on the interaction” value was “disrupting interaction strength”.
In the case of E466K, the “effect of a mutation on the interaction” value is “with no effect”.
For the variant E790K, the “effect of a mutation on the interaction” value is on record as “with no effect”.
In the case of E848K, the “effect of a mutation on the interaction” value is “with no effect”.
Take M477E: the “effect of a mutation on the interaction” value is recorded as “with no effect”.
Turning to L500A, the “effect of a mutation on the interaction” value is “with no effect”.
As for F472E, the “effect of a mutation on the interaction” value was “with no effect”.
Then I751E, with “with no effect”; and C826E, with “with no effect”; and T589E, with “with no effect”.
Turning to P840A, the “effect of a mutation on the interaction” value is recorded as “disrupting interaction strength”.
Then L815E, with “with no effect”; and Q835E, with “with no effect”; and Q764A, with “with no effect”.
Consider S423A, for which the “effect of a mutation on the interaction” value was “with no effect”.
Then L695M, with “disrupting interaction strength”; and N503K, with “with no effect”; and P691S, with “disrupting interaction strength”.
Regarding K630A, the “effect of a mutation on the interaction” value is “with no effect”.
In the case of H652K, the “effect of a mutation on the interaction” value is given as “with no effect”.
In the case of K542E, the “effect of a mutation on the interaction” value is listed as “with no effect”.
As to P520E, the “effect of a mutation on the interaction” value is “with no effect”.
V506A: the “effect of a mutation on the interaction” value is “with no effect”.
In the case of I588A it was “with no effect”; in that of L591K, “with no effect”; in that of E715K, “disrupting interaction strength”.
On to A710E, for which the “effect of a mutation on the interaction” value is listed as “with no effect”.
On to D517A, for which the “effect of a mutation on the interaction” value was “with no effect”.
Regarding V432K, the “effect of a mutation on the interaction” value is recorded as “with no effect”.
On to V432A, for which the “effect of a mutation on the interaction” value was “with no effect”.
For the variant L452K, the “effect of a mutation on the interaction” value is “with no effect”.
In the case of F606E it was “with no effect”; in that of T434E, “with no effect”; in that of L616E, “with no effect”.
In the case of T861E, the “effect of a mutation on the interaction” value is listed as “with no effect”.
As to I676K, the “effect of a mutation on the interaction” value was “with no effect”.
Regarding P556K, the “effect of a mutation on the interaction” value is reported as “with no effect”.
As for L681A, the “effect of a mutation on the interaction” value is listed as “with no effect”.
Take L759E: the “effect of a mutation on the interaction” value is “with no effect”.
As to V450K, the “effect of a mutation on the interaction” value is given as “with no effect”.
Consider L752A, for which the “effect of a mutation on the interaction” value was “with no effect”.
In the case of T836A it was “with no effect”; in that of R619K, “with no effect”.
Consider Y460E, for which the “effect of a mutation on the interaction” value was “with no effect”.
As for L531A, the “effect of a mutation on the interaction” value is recorded as “with no effect”.
In the case of S828E it was “with no effect”; in that of L560A, “with no effect”; in that of R868K, “with no effect”.
W610A: the “effect of a mutation on the interaction” value is reported as “with no effect”.
For W610E, the “effect of a mutation on the interaction” value is recorded as “with no effect”.
On to D859E, for which the “effect of a mutation on the interaction” value is “with no effect”.
Then F864A, with “with no effect”.
Consider V489K, for which the “effect of a mutation on the interaction” value is on record as “with no effect”.
Consider L467E, for which the “effect of a mutation on the interaction” value is reported as “with no effect”.
With L467K, the “effect of a mutation on the interaction” value is “with no effect”.
Turning to K810E, the “effect of a mutation on the interaction” value is reported as “with no effect”.
Regarding D804E, the “effect of a mutation on the interaction” value is on record as “with no effect”.
Then T688E, with “with no effect”.
Turning to F474K, the “effect of a mutation on the interaction” value is “with no effect”.
Take L481K: the “effect of a mutation on the interaction” value was “with no effect”.
Take V461K: the “effect of a mutation on the interaction” value is “with no effect”.
In the case of V485E it was “with no effect”; in that of P758E, “with no effect”; in that of L863A, “with no effect”.
Take S667E: the “effect of a mutation on the interaction” value is reported as “with no effect”.
For the variant I735K, the “effect of a mutation on the interaction” value is “with no effect”.
Regarding L779A, the “effect of a mutation on the interaction” value was “with no effect”.
For the variant E604K, the “effect of a mutation on the interaction” value is “with no effect”.
Take P834K: the “effect of a mutation on the interaction” value is “with no effect”.
With Q627A, the “effect of a mutation on the interaction” value is listed as “with no effect”.
For M837I, the “effect of a mutation on the interaction” value is “disrupting interaction strength”.
D480A: the “effect of a mutation on the interaction” value is “with no effect”.
L733A: the “effect of a mutation on the interaction” value was “disrupting interaction strength”.
As for Q677K, the “effect of a mutation on the interaction” value was “with no effect”.
In the case of Q717E, the “effect of a mutation on the interaction” value is on record as “with no effect”.
Turning to E622A, the “effect of a mutation on the interaction” value is on record as “with no effect”.
Then P516E, with “with no effect”; and R598A, with “with no effect”.
In the case of S777A it was “with no effect”.
On to T782A, for which the “effect of a mutation on the interaction” value was “with no effect”.
As to F487A, the “effect of a mutation on the interaction” value is listed as “with no effect”.
For the variant A633K, the “effect of a mutation on the interaction” value is “with no effect”.
With T702C, the “effect of a mutation on the interaction” value is on record as “disrupting interaction strength”.
In the case of L799K, the “effect of a mutation on the interaction” value is given as “with no effect”.
Take L799E: the “effect of a mutation on the interaction” value was “with no effect”.
Turning to S509E, the “effect of a mutation on the interaction” value is recorded as “with no effect”.
On to L411K, for which the “effect of a mutation on the interaction” value was “with no effect”.
In the case of S555E, the “effect of a mutation on the interaction” value is listed as “with no effect”.

These data come from IntAct's records for PubMed 29039417.
